Measured values from patent US20120207760A1 (THERACLONE SCIENCES, published 2012).

B1: TCN-538 (3206_O17) (antibody, V domains shown)
VH: QITLKESGPTLVKPTQTLTLTCVFSGFSLSITGVRVGWIRQPPGKALEWLALISWDDEKHYSPSLQSRLTITKDTSKNQVVLTMTNLDPVDTATYYCARSTDRGHVLRYFGWMLPGDAFDVWGQGTMVTVSS
VL: DIVMTQSPDFLPVSLGERATINCKSSQRVLYSSNNKNYLAWYQLKPGQPPKLIIYWASTRESGVPDRFSGSGSGTEFTLTISSLQAEDVAVYYCQQYYSRPYTFGQGTKLEIK
B2: TCN-552 (5249_I23) (antibody, V domains shown)
VH: QVQVVQSGAEVKKPGSSVRVSCQASGGTFMNYAIIWVRRAPGQGLEWMGGIIPVFPTPNYAQMFQGRVTISTDESRSTSFLELTNLRYEDTAVYYCARRIYHGGNSGFDFWGQGTLVTVSS
VL: EIVLTQSPATLSLSPGERATLSCRASQSVGNYLAWYQQKPGQAPRLLIYDSSNRAPGIPARFSGSGSGTDFTLTISSLAPEDFAVYYCQQRSKWPPMYSFGHGTKLEIK
B3: TCN-547 (5092_F11) (antibody, V domains shown)
VH: QVQLQESGPGLVKPSQTLSLTCTVSGDSISSVDHYWSWIRQHPVKGLEWIGFMYYSASTYYNPSLKSRVTISTDTSKNQFSLRLSSVTAADTAVYYCARGTCAGDCSLHYYYYGLDVWGQGRTVTVSS
VL: DIQMTQSPSSLSASVGDRVTITCRASQSISSYLNWYQHKPGKAPKVLMYAVSILQSGVPSRFSGSGSGADFTLTISSLQPEDFATYYCQQSYSSPLTFGGGTKVEIK
B4: TCN-549 (5092_P04) (antibody, V domains shown)
VH: QVQLVQSGAEVKKPGASVKVSCKASGYTFTGYYMHWVRQAPGQGLEWMGWINPNSGDTNYAQKFQGRVTMTRDTSITTAYMELSSLRSDDTAVYYCARDSPYSSSWSFFDYWGQGPLVTVSS
VL: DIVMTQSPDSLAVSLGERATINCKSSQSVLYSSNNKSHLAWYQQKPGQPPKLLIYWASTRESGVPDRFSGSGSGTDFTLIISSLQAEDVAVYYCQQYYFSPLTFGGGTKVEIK
B5: TCN-542 (5079_A16) (antibody, V domains shown)
VH: QVQLQESGPGLVKPSQTLSLTCTVSGGSISSGNYYWNWVRQHPGKGLEWIGYIYYRGSTFYNPSLKSRVTISIDTSKNQFSLRLSSVTAADTAVYYCAKDTRSSLDNYQYGMDVWGQGTTVTVSS
VL: QTVVTQEPSLTVSPGGTVTLTCASSTGAVTSSYFPNWFQQKPGQAPRPLIYSTTIRHSWTPARFSGSLLGGKAALTLSGVQPEDEADYYCLLYSGGDPVAFGGGTKLTVL
B6: TCN-548 (5092_P01) (antibody, V domains shown)
VH: QVQLQESGPGLVKPSETLSLTCTVSSGPMSDYYWSWIRQPPGKGLEWIGHVSVSHGGRTKSNPSVMSRVTISVETSKNQFSLKLTSVTAADTAVYYCARLNYYDRSGYHSPDGPSNNWFDPWGQGTLVTVSS
VL: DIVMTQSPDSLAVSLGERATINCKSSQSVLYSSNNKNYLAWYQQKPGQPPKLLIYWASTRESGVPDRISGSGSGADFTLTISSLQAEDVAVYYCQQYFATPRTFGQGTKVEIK
B7: TCN-551 (5243_D01) (antibody, V domains shown)
VH: EVQLVQSGSEVKKPGESLKISCKGSGYSFSNYWIGWVRHMPGKGLEWMGIIYPGDSDTRYSPSFQGQVTMSADKSSSTVYLQWSSLKASDTAIYYCARRGGHSFGYGSGGDTHSEFDSWGQGTLVTVSS
VL: QSVLTQSPSVSAAPGQKVTISCSGSDSNIGDYFVCWYQHLPGKPPQLLIYENNKRPSGIPDRFSGSKSGTSATLGITGIQTGDEADYYCATWDGSLSAWVFGGGTKLTVL
B8: TCN-546 (5089_L08) (antibody, V domains shown)
VH: QVQLQQWGAGLLKPSETLSLTCGVYGGSLSDYYWSWIRQPPGKGLEWIGEINHSGGTNYNPSLKRRVTISVDTSKKQFSLKMNSVTAADTAVYYCARGTDPDTEVYCRAGNCAAFDFWGQGTLVTVSS
VL: EIVLTQSPGTLSLSPGERATLSCRASHFVIGRAVAWYQQKPGQAPRLLIYGASSRATGIPDRFSGSGSGTDFTLTISRLETEDFAVFYCQHYGSSPRYAFGQGTKLEIK
B9: TCN-550 (5096_F06) (antibody, V domains shown)
VH: QVQLQESGPGLVKPSETLSLTCTVSGASINSHYWSWIRQPPGKGLEWIGYVYYSGSTTYNPSLKSRVTLSVDTSKNQFSLNLSSVTAADTAFYYCARHPYDVLTGSGDWFDPWGQGTLVTVSS
VL: SYVLTQAPSVSVAPGQTARITCGGNAIGSKKVHWYQHKAGQAPVLVVYDDTDRPSGIPERFSGSNSWSTATLTINRVEAGDEADYYCQVWDFTIDHVVFGGGTKLTVL
B10: TCN-556 (5089_K12) (antibody, V domains shown)
VH: QVQLVQSGAEVKKPGASVKVSCKASGYTFIGYDMHWVRQAPGQGLEWMGWINAKRGGTNYAQKFQGRVTMTRDTSISTAYMELNSLRSDDTAVYYCARGVGSRTTIFGVLNPEFDYWGQGTLVTVSS
VL: QSALTQPPSASGSPGQSVTISCTGSSSDVGGYDYVSWYQQHPGKAPKLLIYEVTKRPSGVPDRFSGSKSGNTASLTVSGLQAEDEADYYCSSYAGNYNHVFGPGTKVTVL
B11: TCN-544 (5082_A19) (antibody, V domains shown)
VH: QVQLQESGPGLVKPSETLSLTCTVSRGSIGHYFWSWIRQPPGKGLEWIGYISYSGSTKYNPSLRSRVTISVDTSKNQFSLNLNSVTATDTALYYCAREDYDILTGAGPGMEVWGQGTTVTVSS
VL: QSMLTQPPSASGTPGQRVTISCSGSSSNIGSNTVNWFKHLPGTAPKLLIYRNDLRPSGVPDRFSGSKSGTSASLAISGLQSEDEADYYCATWDDSLNGFYVFGTGTKVTVL
B12: TCN-540 (5060_F05) (antibody, V domains shown)
VH: QVQLVQSGGGVVQPGRSLRLSCAASGFTFSSYAMHWVRQAPGKGLEWVAIISYDGNDQYYTDSVKGRFTISRDSSKVYLQMHRLRPEDTAVYYCAKEFETSGYFHGSFDYWGQGILVTVSS
VL: QSALTQPASVSGSPGQSITISCTGTSSDVGGYNYVSWYQQHPGKAPKLLIYEVTNWPSGVSNRFSGSKSGNTASLTISGLQAEDEADYYCSSYAGSSTWVFGGGTRVTVL
B13: TCN-537 (3194_D21) (antibody, V domains shown)
VH: QVQLQQWGSGLLKPSETLSLTCAVYGGSFRDDYWTWIRQPPGKGLEWIGEINHSGRTNYNPSLKSRVTISVDTSLKQFSLKVISVTAADTAVYYCARGTSHVSRYFDWLPPTNWFDPWGQGTQVTVSS
VL: DIVLTQSPGTLSLSPGERATLSCRASQSVSSSYLAWYQQKPGQAPRLVMYGAATRATGIPDRFSGSGSGPDFTLTISRLEPEDFAMYYCQQYGNSPITFGQGTRLEIK
B14: TCN-558 (5248_H10b) (antibody, V domains shown)
VH: QVQLVQSGSEVKKPGTSVKVSCTASGSVFTNYGISWVRQAPGQGLEWMGGIIPLFGAAKYAQKFQGRVTITADESTKTVYMELSRLTSKDTAIYFCAKAPRVYEYYFDQWGQGTPVTVSS
VL: EIVMTQFPATLSVSPGERVTLSCRASQSVSNNLAWYQQKPGQPPRLLIYDASTRATGVPAKFSGTGSGTEFTLSISSLQSEDFAVYYCQQYHNWPPSYSFGLGTKLEIK
B15: TCN-557 (5081_A04) (antibody, V domains shown)
VH: QVQLVQSGAEVKKPGASVKVSCKASGHTFTGYYIHWVRQAPGQGLEWMGWINPDSGATSSAQNFQGRVTMTGDTSSSTAYMELSRLSFDDTAVYYCARVLFTSPFDFWGEGTLVTVSS
VL: QAVVTQEPSLAVSPGGTVTLTCGSSTGAVTRGHYPYWFQQKPGQAPRALIYDSAGNRHSWTPARFSGSLLGGKAALTLSGAQPEDEAEYYCLLSYSGVWVFGGGTKLTVL
B16: TCN-543 (5081_G23) (antibody, V domains shown)
VH: QVHLVQSGAEVRKPGDSVKVSCKTSGYTFSTYPVAWVRQVPGQGLEWMGWISTYNGNTNFAQNFQGRVTLTTDTTTNTAYMEVRSLKFDDTAVYYCARVEGSYRDFWNNQNRFDPWGQGTLVTVSS
VL: SYVLTQPPSVSVAPGQTARISCGGSNIGGKSVHWYQQKPGQAPVLVVYDDSGRPSGIPERFSGSNSGDTATLTISRVEAGDEADYFCQVWDNFGGVFGTGTKVTVL
B17: TCN-554 (5277_M05) (antibody, V domains shown)
VH: QVQLVQSGADLKKPGASVKVSCKASGYTFTDYYIHWVRQAPGQGLEWMGWINPESGDTKYAQKFQGRVTMTRDTSITTAYMELGRLRSDDTAVYYCARDVSTTWSWFAPWGQGTLVTVSS
VL: DIVMTQSPDSLAVSLGERATINCRSSQSIFHNSNNENYLAWYQQKPGQPPKLLIYWASTRESGVPDRFSGSGSGTDFTLTISSLQAEDVAVYFCQQYYNAPLTFGGGTKVEIK
B18: TCN-539 (5056_A08) (antibody, V domains shown)
VH: QVQLVESGGGVVQPGRSLRLSCAASEITFITYAMHWVRQAPGKGLEWVALISDDGSNKFYADSVKGRFTISRDNSKNTLYLQMNSLRAEDTAAYYCAREGVYFDSGTYRGYFDYWGQETLVTVSS
VL: EIVLTQSPATLSLSPGERATLSCRASQSVSSYLAWYQQKPGQAPRLLIYDASNRATGIPARFSGSGSGTDFTLTISSLEPEDFAVYYCQQRSHWPPITFGQGTRLEIK
B19: TCN-553 (5261_C18) (antibody, V domains shown)
VH: QVQVVQSGTEVKKPGSSVKVSCQTSGGRFMSYAITWVRQAPGQGLEWMGGIVPVFGTANYAQKFQGRVTITTDDSTRTAYMELSSLRSEDTAVYYCGFRYGSGYGFDSWGQGTLVTVSS
VL: EIVLTQSPGTLSLSPGERATLSCRASQSVSSSYLAWYQKKPGQAPRLLIYGASTRATGIPDRFTGSGSGTDFTLSISRLEPEDFAVYYCQHFGTSVFTFGGGTKVEIK
B20: TCN-545 (5082_I15) (antibody, V domains shown)
VH: QVQLQQWGAGLLKPSETLSLSCAVFGGSFSDYYWTWIRQPPGKGLEWIGEIKHSGRTNYNPSLESRVTISVDTSKNQFSLKLSSVTAADTAIYYCARGTDPDTEGYCRSGSCSAFDFWGQGTLVTVSS
VL: EIVLTQSPGTLSLSPGERATLSCRASHFVNYRSLAWYQQTPGQVPRLLIYGASTRATGIPDRFSGSGSGTDFTLTISRLEPEDFAVYFCQQYGGSPRYTFGQGTRLEIK

Legend:
[1] = biological target: T1, hemagglutinin (HA) of influenza A/Solomon Islands/3/06 H1N1 (Influenza A virus A/Solomon …); assay: cell-based or functional assay
[2] = biological target: T1, hemagglutinin (HA) of influenza …; assay: ELISA, inactivated whole virions coated; transfection supernatant set 5
[3] = biological target: hemagglutinin (HA) of influenza A/Japan/305/57 H2N2 (Influenza A virus A/Japan/305/1957 …, UniProt P03451 16-562); assay: as above

| Binder | % Neutralization [1] [%] | OD450 [2] [OD450] | OD450 [3] [OD450] |
| --- | --- | --- | --- |
| B1 | 35 | 3.59 | 3.37 |
| B2 | 57 | 3.61 | 2.68 |
| B3 | – | 0.09 | 0.09 |
| B4 | – | 0.09 | 0.08 |
| B5 | 98 | 3.6 | 0.07 |
| B6 | – | 0.13 | 0.09 |
| B7 | 100 | 3.65 | – |
| B8 | 0 | 3.67 | 0.07 |
| B9 | – | 0.13 | 0.08 |
| B10 | – | 3.64 | 3.64 |
| B11 | 95 | 0.07 | 0.07 |
| B12 | 100 | 0.09 | 3.61 |
| B13 | 89 | 3.56 | 3.48 |
| B14 | – | 3.52 | 3.31 |
| B15 | – | 3.58 | 3.59 |
| B16 | 100 | 3.63 | 3.64 |
| B17 | 42 | 0.18 | 0.11 |
| B18 | 97 | 0.07 | 0.07 |
| B19 | 87 | 3.56 | 3.28 |
| B20 | 98 | 1.36 | 0.1 |
